Assay results reported in patent US20230295338A1 (YMMUNOBIO, published 2023).

Key:
[1] = molecular target: T1, peptide P-Q-Q-L-F-G-Y-S-W-Y (human); assay: solid phase peptide ELISA, mAb 5 µg/ml (FIG. 20)
T1 construct: coated on the ELISA plate
T1 peptide: PQQLFGYSWY
Procedure: After three times washing with PBS, samples were incubated with goat anti mouse-HRP (Jackson ImmunoResearch, 1:10.000 dilution in 1% BSA/PBS, 100 µl/well). Then plates were washed three times with PBS, developed with 100 µl TMB substrate, blocked with 100 µl 0.2 M H2SO4 and measured by the TECAN-ELISA reader sunrise at 450 nm. Samples were run in triplicates. Results shown are representative for three independent repeats.

CEACAM1-dN-Fc = molecular target: T2, CEACAM1-dN-Fc (human, UniProt P13688 143-428, limits assumed); assay: solid phase ELISA, CEACAM-Fc coated (FIG. 19)
T2 construct: Human CEACAM1 extracellular part without the N domain, fused to Fc; also called CEACAM1 variant lacking the N domain; not shown: human IgG Fc

human CEACAM5-Fc = molecular target: T3, human CEACAM5-Fc (human, UniProt P06731 35-685, limits assumed); assay: solid phase ELISA, CEACAM-Fc coated, mAb 5 µg/ml (FIG. 19)
T3 construct: also called recombinant CEACAM-Fc protein; not shown: human IgG Fc
T3 sequence (looked up): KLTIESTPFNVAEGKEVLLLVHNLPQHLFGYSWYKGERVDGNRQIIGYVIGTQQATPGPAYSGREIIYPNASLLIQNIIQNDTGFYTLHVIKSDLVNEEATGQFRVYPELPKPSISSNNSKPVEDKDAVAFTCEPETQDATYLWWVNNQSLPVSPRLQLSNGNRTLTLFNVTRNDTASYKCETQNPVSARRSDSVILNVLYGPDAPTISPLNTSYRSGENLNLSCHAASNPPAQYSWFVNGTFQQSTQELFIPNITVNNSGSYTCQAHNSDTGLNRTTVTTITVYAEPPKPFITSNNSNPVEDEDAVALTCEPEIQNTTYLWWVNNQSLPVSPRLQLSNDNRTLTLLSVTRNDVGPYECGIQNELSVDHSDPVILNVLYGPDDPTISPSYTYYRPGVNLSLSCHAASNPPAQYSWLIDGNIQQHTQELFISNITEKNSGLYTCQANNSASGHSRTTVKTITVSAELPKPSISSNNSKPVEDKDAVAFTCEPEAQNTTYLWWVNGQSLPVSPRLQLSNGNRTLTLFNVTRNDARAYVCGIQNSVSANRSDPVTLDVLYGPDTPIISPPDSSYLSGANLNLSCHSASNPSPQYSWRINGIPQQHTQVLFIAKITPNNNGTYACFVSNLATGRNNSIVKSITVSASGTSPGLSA

human CEACAM3-Fc = molecular target: T4, human CEACAM3-Fc (human, UniProt P40198 35-155, limits assumed); assay: as above
T4 construct: also called recombinant CEACAM-Fc protein; not shown: human IgG Fc
T4 sequence (looked up): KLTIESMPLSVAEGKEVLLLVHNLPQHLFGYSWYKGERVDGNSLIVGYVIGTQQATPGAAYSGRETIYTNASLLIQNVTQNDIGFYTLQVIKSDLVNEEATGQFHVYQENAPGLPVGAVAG

[2] = molecular target: T5, human CEACAM1-Fc fusion protein (human, UniProt P13688 35-428); assay: as above
T5 construct: Said to comprise the entire extracellular domain of human CEACAM1; also called CEACAM1-huFc; recombinant CEACAM1-Fc; not shown: human IgG Fc (huFc)
T5 sequence: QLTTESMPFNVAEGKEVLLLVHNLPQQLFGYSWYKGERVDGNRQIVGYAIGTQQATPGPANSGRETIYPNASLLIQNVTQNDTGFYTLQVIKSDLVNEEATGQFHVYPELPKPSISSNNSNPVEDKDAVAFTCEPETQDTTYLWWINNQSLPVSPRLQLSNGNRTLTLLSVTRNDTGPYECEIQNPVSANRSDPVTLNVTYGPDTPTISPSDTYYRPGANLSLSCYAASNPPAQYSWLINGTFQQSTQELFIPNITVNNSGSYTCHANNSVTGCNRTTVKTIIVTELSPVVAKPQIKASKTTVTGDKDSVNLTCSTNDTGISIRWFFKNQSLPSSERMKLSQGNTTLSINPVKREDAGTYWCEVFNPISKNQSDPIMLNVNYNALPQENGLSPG

human CEACAM8-Fc = molecular target: T6, human CEACAM8-Fc (human, UniProt P31997 35-320, limits assumed); assay: sandwich ELISA, CC1/3/5-Sab coated, CEACAM-Fc proteins in solution
T6 construct: also called recombinant CEACAM-Fc protein; not shown: human IgG Fc
T6 sequence (looked up): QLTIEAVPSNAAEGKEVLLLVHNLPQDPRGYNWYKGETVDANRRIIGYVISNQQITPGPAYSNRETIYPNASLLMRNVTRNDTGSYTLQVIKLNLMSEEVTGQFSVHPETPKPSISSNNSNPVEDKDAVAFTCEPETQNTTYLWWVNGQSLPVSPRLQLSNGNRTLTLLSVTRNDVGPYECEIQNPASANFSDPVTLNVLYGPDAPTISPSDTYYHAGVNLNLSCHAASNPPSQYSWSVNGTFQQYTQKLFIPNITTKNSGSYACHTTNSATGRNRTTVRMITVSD

human CEACAM6-Fc = molecular target: T7, human CEACAM6-Fc (human, UniProt P40199 35-320, limits assumed); assay: as above
T7 construct: also called recombinant CEACAM-Fc protein; not shown: human IgG Fc
T7 sequence (looked up): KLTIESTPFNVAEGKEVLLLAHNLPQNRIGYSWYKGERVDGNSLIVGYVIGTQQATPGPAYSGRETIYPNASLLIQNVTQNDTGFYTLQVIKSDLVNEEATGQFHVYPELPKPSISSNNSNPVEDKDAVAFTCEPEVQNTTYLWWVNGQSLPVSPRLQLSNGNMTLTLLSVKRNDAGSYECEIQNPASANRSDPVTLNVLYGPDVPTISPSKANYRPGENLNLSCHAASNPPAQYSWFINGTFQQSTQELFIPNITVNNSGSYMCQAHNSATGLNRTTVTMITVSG

human CEACAM3 = molecular target: T8, human CEACAM3 (human, UniProt P40198 35-252); assay: flow cytometry on CHO transfectants
T8 construct: whole, on cells; also called huCEACAM3; CHO transfectants expressing human CEACAM3
T8 sequence (looked up): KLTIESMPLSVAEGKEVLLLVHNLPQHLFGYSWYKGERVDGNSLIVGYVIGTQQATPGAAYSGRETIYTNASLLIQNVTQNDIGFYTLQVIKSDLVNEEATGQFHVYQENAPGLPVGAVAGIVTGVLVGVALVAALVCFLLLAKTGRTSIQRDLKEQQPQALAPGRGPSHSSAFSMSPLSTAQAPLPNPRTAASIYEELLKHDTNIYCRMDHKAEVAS
Procedure: (§1) After washing, FITC-labeled secondary goat anti mouse antibody was applied. Cell surface binding was analyzed utilizing a FACScalibur flow cytometer (Becton Dickinson).

human CEACAM1 = molecular target: T9, human CEACAM1 (human, UniProt P13688 35-526); assay: flow cytometry on CHO transfectants
T9 construct: Expressed on CHO transfectants; also called huCEACAM1; CHO-CEACAM1
T9 sequence: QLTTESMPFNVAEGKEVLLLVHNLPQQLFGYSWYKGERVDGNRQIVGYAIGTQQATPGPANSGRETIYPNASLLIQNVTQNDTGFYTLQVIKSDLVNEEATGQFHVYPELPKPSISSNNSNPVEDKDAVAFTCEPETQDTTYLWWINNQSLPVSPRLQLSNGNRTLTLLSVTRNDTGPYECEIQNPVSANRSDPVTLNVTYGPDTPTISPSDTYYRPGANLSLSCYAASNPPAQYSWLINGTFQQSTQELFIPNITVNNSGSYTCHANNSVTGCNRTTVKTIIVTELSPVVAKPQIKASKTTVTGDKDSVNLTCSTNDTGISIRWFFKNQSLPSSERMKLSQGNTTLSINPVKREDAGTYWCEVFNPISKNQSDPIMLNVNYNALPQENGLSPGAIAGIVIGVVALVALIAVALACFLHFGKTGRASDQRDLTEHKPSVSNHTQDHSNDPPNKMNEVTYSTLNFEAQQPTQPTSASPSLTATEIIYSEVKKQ
Procedure: as §1

B1: CC1/3/5-Sab (antibody, V domains shown)
VH: EVQLQQSGPELVKPGTSVKMSCKASGYTFTTYVMHWVQQKPGQGLDWIGFFNPYNDGTKYNEKFKGKATLTSDKSSSTAYMELSSLTSEDSAVYYCARWAYDGSYAYWGQGTTLTVSS
VL: DIQMTQSSSYLSVFLGGRVTITCKASDHINNWLAWYQQKPGNAPRLLISGATSLETGVPSRFSGSGSGKDYTLSIISLQTEDVATYYCQQYWRTPFTFGSGTKLEIK
notes: also called mAb CC1/3/5-Sab; CC1/3/4-Sab
[1]
  binding result: binds
CEACAM1-dN-Fc
  binding result: no binding (tested: 5 µg/ml)
Human CEACAM5-Fc
  binding result: binds
Human CEACAM3-Fc
  binding result: binds
[2]
  binding result: binds
Human CEACAM8-Fc
  binding result: no binding (tested: 0.1 µg/ml CEACAM-Fc)
Human CEACAM6-Fc
  binding result: no binding (tested: 0.1 µg/ml CEACAM-Fc)
Human CEACAM3
  binding result: binds
Human CEACAM1
  binding result: binds
